Data published in the supplement of paper PMC9112550, “Optimization of the antimicrobial peptide Bac7 by deep mutational scanning” (BMC Biology, 2022).

System: Escherichia coli TOP10
Experiment: shrunken log2 fold change of peptide-encoding DNA abundance (4.5 h post-induction vs induction); higher = less antimicrobial activity (less host growth inhibition)
Settings: time post-induction: 4.5 h; library: site-saturation at positions 5, 18, 19, 20
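Further: peptides expressed intracellularly from a pBAD plasmid library in pooled LB shake-flask culture, induced with 0.3% L-arabinose, DNA abundance read by NGS, three biological replicates, DESeq2 with apeglm shrinkage.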

Point of comparison: RRIRPRPPRLPRPRPRPVSQPRP, “shrunken log2 fold change” value -0.0764. Against it:
- RRIRWRPPRLPRPRPRPVREPRP — within 0.2 log units, 0.0727
- RRIRMRPPRLPRPRPRPPTIPRP — higher, 0.301
- RRIRQRPPRLPRPRPRPEGEPRP — within 0.2 log units, 0.0215
- RRIRPRPPRLPRPRPRPCCAPRP — within 0.2 log units, 0.0786
- RRIRCRPPRLPRPRPRPIWMPRP — lower, -0.677
- RRIRFRPPRLPRPRPRPKMTPRP — within 0.2 log units, -0.173
- RRIRLRPPRLPRPRPRPLCYPRP — within 0.2 log units, -0.15
- RRIRDRPPRLPRPRPRPIPVPRP — within 0.2 log units, -0.00774
- RRIRSRPPRLPRPRPRPGRHPRP — within 0.2 log units, 0.0088
- RRIRERPPRLPRPRPRPQLYPRP — lower, -0.441
- RRIRVRPPRLPRPRPRPTDNPRP — lower, -0.363
- RRIRERPPRLPRPRPRPCYEPRP — within 0.2 log units, -0.0528
- RRIRARPPRLPRPRPRPLSKPRP — within 0.2 log units, -0.0286
- RRIRNRPPRLPRPRPRPYFFPRP — lower, -0.482
- RRIRGRPPRLPRPRPRPYTKPRP — within 0.2 log units, -0.216
- RRIRMRPPRLPRPRPRPIKKPRP — within 0.2 log units, 0.0441
- RRIRPRPPRLPRPRPRPDAWPRP — higher, 0.513
- RRIRCRPPRLPRPRPRPTMIPRP — lower, -0.922
- RRIRCRPPRLPRPRPRPKNPPRP — higher, 1.17
- RRIRTRPPRLPRPRPRPNLLPRP — within 0.2 log units, -0.245
- RRIRWRPPRLPRPRPRPAFKPRP — within 0.2 log units, -0.00397
- RRIRPRPPRLPRPRPRPRFEPRP — within 0.2 log units, 0.0793
- RRIRYRPPRLPRPRPRPRASPRP — lower, -0.412
- RRIRIRPPRLPRPRPRPASIPRP — lower, -0.361
- RRIRWRPPRLPRPRPRPYIQPRP — lower, -1.07
- RRIRERPPRLPRPRPRPVQQPRP — within 0.2 log units, -0.168
- RRIRGRPPRLPRPRPRPYEAPRP — within 0.2 log units, 0.045
- RRIRKRPPRLPRPRPRPTNFPRP — within 0.2 log units, 0.111
- RRIRDRPPRLPRPRPRPSRIPRP — lower, -0.307
- RRIRKRPPRLPRPRPRPVTDPRP — within 0.2 log units, -0.0127
- RRIRVRPPRLPRPRPRPTCTPRP — within 0.2 log units, -0.00861
- RRIRPRPPRLPRPRPRPPRTPRP — higher, 0.609
- RRIRQRPPRLPRPRPRPGLLPRP — within 0.2 log units, -0.0475
- RRIRWRPPRLPRPRPRPCATPRP — higher, 0.183
- RRIRVRPPRLPRPRPRPPGYPRP — within 0.2 log units, 0.0333
- RRIRFRPPRLPRPRPRPQIRPRP — within 0.2 log units, -0.231
- RRIRFRPPRLPRPRPRPWADPRP — within 0.2 log units, -0.168
- RRIRTRPPRLPRPRPRPQLHPRP — within 0.2 log units, 0.0211
- RRIRTRPPRLPRPRPRPMDQPRP — within 0.2 log units, 0.0595
- RRIRARPPRLPRPRPRPHCVPRP — within 0.2 log units, 0.0669
- RRIRIRPPRLPRPRPRPLKEPRP — lower, -0.568
- RRIRPRPPRLPRPRPRPCLKPRP — within 0.2 log units, -0.0625
- RRIRARPPRLPRPRPRPDIKPRP — within 0.2 log units, -0.026
- RRIRMRPPRLPRPRPRPWMAPRP — within 0.2 log units, -0.0347
- RRIRWRPPRLPRPRPRPMNQPRP — lower, -0.33
- RRIRMRPPRLPRPRPRPSMHPRP — higher, 0.377
- RRIRVRPPRLPRPRPRPQMDPRP — lower, -0.297
- RRIRARPPRLPRPRPRPQMTPRP — within 0.2 log units, 0.0889
- RRIRCRPPRLPRPRPRPGFPPRP — higher, 0.134
- RRIRDRPPRLPRPRPRPHGYPRP — within 0.2 log units, 0.0237
- RRIRVRPPRLPRPRPRPVPYPRP — within 0.2 log units, -0.0265
- RRIRYRPPRLPRPRPRPWMPPRP — lower, -0.417
- RRIRARPPRLPRPRPRPGRYPRP — higher, 0.54
- RRIRRRPPRLPRPRPRPDYHPRP — within 0.2 log units, -0.0959
- RRIRMRPPRLPRPRPRPETFPRP — higher, 0.211
- RRIRRRPPRLPRPRPRPDQYPRP — within 0.2 log units, -0.126
- RRIRNRPPRLPRPRPRPYVKPRP — lower, -0.626
- RRIRWRPPRLPRPRPRPSCPPRP — lower, -0.33
- RRIRERPPRLPRPRPRPSEHPRP — within 0.2 log units, -0.0752
- RRIRNRPPRLPRPRPRPNNWPRP — within 0.2 log units, -0.0773
- RRIRERPPRLPRPRPRPVSSPRP — within 0.2 log units, -0.215
- RRIRQRPPRLPRPRPRPCLAPRP — higher, 0.297
- RRIRKRPPRLPRPRPRPYEMPRP — higher, 0.138
- RRIRVRPPRLPRPRPRPQFFPRP — within 0.2 log units, -0.0611
- RRIRPRPPRLPRPRPRPACYPRP — within 0.2 log units, -0.199
- RRIRERPPRLPRPRPRPMRVPRP — higher, 0.501
- RRIRFRPPRLPRPRPRPGNHPRP — within 0.2 log units, -0.0246
- RRIRARPPRLPRPRPRPADLPRP — higher, 0.729
- RRIRIRPPRLPRPRPRPQPIPRP — within 0.2 log units, -0.00642
- RRIRARPPRLPRPRPRPPKSPRP — higher, 0.658
- RRIRWRPPRLPRPRPRPIQNPRP — lower, -0.394
- RRIRIRPPRLPRPRPRPLEDPRP — within 0.2 log units, -0.0413
- RRIRARPPRLPRPRPRPYYAPRP — lower, -0.501
- RRIRVRPPRLPRPRPRPGSMPRP — within 0.2 log units, -0.00131
- RRIRCRPPRLPRPRPRPRWHPRP — within 0.2 log units, -0.00459
- RRIRMRPPRLPRPRPRPEGQPRP — within 0.2 log units, -0.00185
- RRIRIRPPRLPRPRPRPPSVPRP — within 0.2 log units, -0.0681
- RRIRWRPPRLPRPRPRPQDHPRP — higher, 0.178
- RRIRYRPPRLPRPRPRPERSPRP — within 0.2 log units, -0.00131
- RRIRGRPPRLPRPRPRPTQAPRP — higher, 1.37
- RRIRIRPPRLPRPRPRPQWGPRP — within 0.2 log units, -0.000367
- RRIRDRPPRLPRPRPRPVPGPRP — higher, 0.214
- RRIRKRPPRLPRPRPRPTLEPRP — higher, 0.132
- RRIRQRPPRLPRPRPRPVNKPRP — within 0.2 log units, 0.112
- RRIRPRPPRLPRPRPRPLGWPRP — higher, 0.442
- RRIRGRPPRLPRPRPRPLWIPRP — higher, 0.163
- RRIRFRPPRLPRPRPRPICHPRP — lower, -0.351
- RRIRFRPPRLPRPRPRPCWYPRP — within 0.2 log units, -0.225
- RRIRVRPPRLPRPRPRPAQFPRP — higher, 0.341
- RRIRPRPPRLPRPRPRPNNEPRP — lower, -0.504
- RRIRSRPPRLPRPRPRPRGPPRP — higher, 0.568
- RRIRLRPPRLPRPRPRPPIMPRP — within 0.2 log units, -0.239
- RRIRQRPPRLPRPRPRPCDVPRP — within 0.2 log units, -0.15
- RRIRVRPPRLPRPRPRPQHKPRP — lower, -0.483
- RRIRQRPPRLPRPRPRPWPGPRP — within 0.2 log units, 0.116
- RRIRERPPRLPRPRPRPWAFPRP — within 0.2 log units, -0.165
- RRIRLRPPRLPRPRPRPCKTPRP — within 0.2 log units, 0.0231
- RRIRIRPPRLPRPRPRPYNLPRP — lower, -0.391
- RRIRKRPPRLPRPRPRPSYIPRP — within 0.2 log units, -0.136
- RRIRDRPPRLPRPRPRPYHCPRP — within 0.2 log units, -0.00783
- RRIRHRPPRLPRPRPRPTMPPRP — within 0.2 log units, -0.00312
- RRIRNRPPRLPRPRPRPLDHPRP — within 0.2 log units, -0.0699
- RRIRSRPPRLPRPRPRPKRPPRP — higher, 0.413
- RRIRHRPPRLPRPRPRPGHLPRP — within 0.2 log units, -0.0129
- RRIRARPPRLPRPRPRPWQSPRP — higher, 0.183
- RRIRWRPPRLPRPRPRPNWCPRP — within 0.2 log units, -0.0188
- RRIRNRPPRLPRPRPRPGCLPRP — within 0.2 log units, -0.000466
- RRIRPRPPRLPRPRPRPCIGPRP — within 0.2 log units, 0.00708
